Data reported in the supplement of paper PMC7125110.
± gives the standard error. For part of these data: Variants at the floor of the assay were thinned out.

B1: glmS ribozyme (parent)
chain: AUAAAAGCGCCAGAACUACAGAAAUGUAGUUGACGAGGAGGAGGUUUAUCGAAUUUUCGGCGGAUGCCUCCAAA

Key:
Conditions in all cases: with glucosamine-6-phosphate
glucosamine-6-phosphate [1] = variants of: B1; test: kcat; higher = faster cleavage; RNA array
Procedure, shortened: (§1)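 Glucosamine-6-phosphate in HEPES/KCl/Mg(OAc)2 buffer, at 40 μM to 10 mM, was flowed over barcoded ribozyme variants transcribed in situ by E. coli RNA polymerase on sequenced MiSeq chips. Tracking was through a hybridised Cy3 probe at 37 °C. kobs, kcat and KM came from exponential decay fits and weighted Michaelis–Menten fits of normalised per-tile medians.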

glucosamine-6-phosphate [2] = variants of: B1; test: KM; higher = weaker cofactor use; RNA array
Procedure, shortened: as §1

glucosamine-6-phosphate [3] = variants of: B1; test: self-cleavage kobs at 40 uM GlcN6P; higher = faster cleavage; RNA array
Procedure, shortened: as §1

glucosamine-6-phosphate [4] = variants of: B1; test: self-cleavage kobs at 160 uM GlcN6P; higher = faster cleavage; RNA array
Procedure, shortened: as §1

glucosamine-6-phosphate [5] = variants of: B1; test: self-cleavage kobs at 640 uM GlcN6P; higher = faster cleavage; RNA array
Procedure, shortened: as §1

glucosamine-6-phosphate [6] = variants of: B1; test: self-cleavage kobs at 2500 uM GlcN6P; higher = faster cleavage; RNA array
Procedure, shortened: as §1

glucosamine-6-phosphate [7] = variants of: B1; test: self-cleavage kobs at 10000 uM GlcN6P; higher = faster cleavage; RNA array
Procedure, shortened: as §1

| Variant | kcat (glucosamine-6-phosphate [1]) | KM (glucosamine-6-phosphate [2]) | self-cleavage kobs at 40 uM GlcN6P (glucosamine-6-phosphate [3]) | self-cleavage kobs at 160 uM GlcN6P (glucosamine-6-phosphate [4]) | self-cleavage kobs at 640 uM GlcN6P (glucosamine-6-phosphate [5]) | self-cleavage kobs at 2500 uM GlcN6P (glucosamine-6-phosphate [6]) | self-cleavage kobs at 10000 uM GlcN6P (glucosamine-6-phosphate [7]) |
| --- | --- | --- | --- | --- | --- | --- | --- |
| A14G G41U | 0.00179 ± 0.00049 s⁻¹ | 206 ± 99 µM | 0.00033 ± 4.5e-05 s⁻¹ | 0.000642 ± 0.00012 s⁻¹ | 0.00124 ± 0.00021 s⁻¹ | 0.00232 ± 0.00045 s⁻¹ | – |
| G13U U65G | 0.000372 ± 2.8e-05 s⁻¹ | 3750 ± 540 µM | – | – | 5.82e-05 ± 1.2e-05 s⁻¹ | 0.000136 ± 2.7e-05 s⁻¹ | 0.000276 ± 3.5e-05 s⁻¹ |
| A14C A42G | 0.0097 ± 0.0025 s⁻¹ | 2690 ± 890 µM | 0.000181 ± 2e-05 s⁻¹ | 0.000475 ± 7.2e-05 s⁻¹ | 0.00154 ± 0.00023 s⁻¹ | 0.00494 ± 0.00075 s⁻¹ | 0.00788 ± 0.0011 s⁻¹ |
| A14G A36G | 4.89e-05 ± 6.4e-07 s⁻¹ | 854 ± 82 µM | – | – | – | 3.69e-05 ± 1.2e-05 s⁻¹ | 4.49e-05 ± 6.3e-06 s⁻¹ |
| A14G G66U | 0.00542 ± 0.00096 s⁻¹ | 2220 ± 560 µM | 0.000114 ± 1.2e-05 s⁻¹ | 0.00039 ± 4e-05 s⁻¹ | 0.00094 ± 0.00012 s⁻¹ | 0.00287 ± 0.00033 s⁻¹ | 0.00464 ± 0.0004 s⁻¹ |
| A14C U65A | 0.000588 ± 2.2e-05 s⁻¹ | 3100 ± 210 µM | – | – | 0.000103 ± 1.5e-05 s⁻¹ | 0.000248 ± 5e-05 s⁻¹ | 0.000453 ± 5.4e-05 s⁻¹ |
| A14C A48C | 5.79e-05 ± 1.1e-05 s⁻¹ | – | – | – | – | 4.95e-05 ± 1.2e-05 s⁻¹ | 4.92e-05 ± 1.2e-05 s⁻¹ |
| A14G A48G | 0.000249 ± 3.2e-05 s⁻¹ | 648 ± 220 µM | – | 3.64e-05 ± 1.4e-05 s⁻¹ | 0.000128 ± 1.4e-05 s⁻¹ | 0.000232 ± 2.6e-05 s⁻¹ | 0.000203 ± 2.9e-05 s⁻¹ |
| A14G A48U | 0.00132 ± 0.00027 s⁻¹ | 2320 ± 780 µM | 3.34e-05 ± 1.3e-05 s⁻¹ | 6.56e-05 ± 1.5e-05 s⁻¹ | 0.000335 ± 5.6e-05 s⁻¹ | 0.000889 ± 0.00016 s⁻¹ | 0.000999 ± 0.00013 s⁻¹ |
| A14G A33G | < 1e-05 s⁻¹ | – | < 1e-05 s⁻¹ | < 1e-05 s⁻¹ | – | < 1e-05 s⁻¹ | < 1e-05 s⁻¹ |
| A14G A52U | 0.000706 ± 1.3e-05 s⁻¹ | 3890 ± 120 µM | – | – | 9.98e-05 ± 1.6e-05 s⁻¹ | 0.000274 ± 5.2e-05 s⁻¹ | 0.000509 ± 6.5e-05 s⁻¹ |
| A14G G60A | 8.13e-05 ± 1.1e-05 s⁻¹ | 3020 ± 1300 µM | – | – | – | 4.34e-05 ± 1.9e-05 s⁻¹ | 6.17e-05 ± 1.2e-05 s⁻¹ |
| A14C U57A U69A | 3.51e-05 ± 1.3e-05 s⁻¹ | – | – | – | 4.77e-05 ± 2.2e-05 s⁻¹ | – | – |
| G13U U46A | 3.16e-05 ± 1.5e-06 s⁻¹ | 479 ± 200 µM | – | – | – | 2.81e-05 ± 1.2e-05 s⁻¹ | 2.96e-05 ± 9.4e-06 s⁻¹ |
| A14C G29U | 0.000857 ± 0.00017 s⁻¹ | 1650 ± 550 µM | 4.05e-05 ± 1.2e-05 s⁻¹ | 5.99e-05 ± 1.3e-05 s⁻¹ | 0.000267 ± 3.9e-05 s⁻¹ | 0.000556 ± 8.5e-05 s⁻¹ | 0.000697 ± 0.0001 s⁻¹ |
| A14C A52G U57G | 0.000174 ± 4.6e-05 s⁻¹ | – | – | – | 8.13e-05 ± 1.9e-05 s⁻¹ | 8.49e-05 ± 2.9e-05 s⁻¹ | 0.000182 ± 3.1e-05 s⁻¹ |

| Variant | kcat (glucosamine-6-phosphate [1]) | KM (glucosamine-6-phosphate [2]) | self-cleavage kobs at 40 uM GlcN6P (glucosamine-6-phosphate [3]) | self-cleavage kobs at 160 uM GlcN6P (glucosamine-6-phosphate [4]) | self-cleavage kobs at 640 uM GlcN6P (glucosamine-6-phosphate [5]) | self-cleavage kobs at 2500 uM GlcN6P (glucosamine-6-phosphate [6]) | self-cleavage kobs at 10000 uM GlcN6P (glucosamine-6-phosphate [7]) |
| --- | --- | --- | --- | --- | --- | --- | --- |
| G13U U30G | 0.000187 ± 3.9e-05 s⁻¹ | 2660 ± 1200 µM | – | – | 2.49e-05 ± 9.4e-06 s⁻¹ | 0.000105 ± 1.2e-05 s⁻¹ | 0.000136 ± 2e-05 s⁻¹ |
| A14G G59A | 0.000294 ± 1.8e-05 s⁻¹ | 2010 ± 250 µM | – | – | 6.96e-05 ± 1.2e-05 s⁻¹ | 0.000183 ± 3.7e-05 s⁻¹ | 0.000239 ± 3e-05 s⁻¹ |
| A14G G32A | 0.0158 ± 0.0015 s⁻¹ | 2500 ± 310 µM | 0.000266 ± 3.1e-05 s⁻¹ | 0.000935 ± 0.00013 s⁻¹ | 0.00305 ± 0.0005 s⁻¹ | 0.00726 ± 0.0011 s⁻¹ | 0.0136 ± 0.0018 s⁻¹ |
| G13U U49G | 1.85e-05 ± 6.3e-06 s⁻¹ | – | < 1e-05 s⁻¹ | < 1e-05 s⁻¹ | – | – | – |
| A14G G43U | 0.000159 ± 2.6e-05 s⁻¹ | 2770 ± 980 µM | – | – | 3.9e-05 ± 8.4e-06 s⁻¹ | 6.85e-05 ± 8.5e-06 s⁻¹ | 0.000131 ± 1.5e-05 s⁻¹ |
| A14G C58U C61U | 1.33e-05 ± 2.7e-06 s⁻¹ | – | < 1e-05 s⁻¹ | – | – | – | – |
| A14C U57C | 5.66e-05 ± 5.7e-07 s⁻¹ | 1390 ± 73 µM | < 1e-05 s⁻¹ | – | – | 3.68e-05 ± 1.3e-05 s⁻¹ | 4.96e-05 ± 7.4e-06 s⁻¹ |
| A14C U49G | 0.000151 ± 5.2e-06 s⁻¹ | 6690 ± 570 µM | – | – | – | – | 9.07e-05 ± 1.3e-05 s⁻¹ |
| A14U A33U | 0.000182 ± 2.6e-05 s⁻¹ | – | – | – | – | 2.81e-05 ± 1e-05 s⁻¹ | 7.63e-05 ± 9.8e-06 s⁻¹ |
| A14G G37U | 2.35e-05 ± 1.3e-06 s⁻¹ | 1680 ± 470 µM | < 1e-05 s⁻¹ | – | – | – | 2.02e-05 ± 1e-05 s⁻¹ |
| A14G G37C | 0.000101 ± 3.2e-05 s⁻¹ | – | – | – | 5.36e-05 ± 1.6e-05 s⁻¹ | 4.49e-05 ± 9e-06 s⁻¹ | 8.64e-05 ± 9.6e-06 s⁻¹ |
| G13U U54G | 0.00069 ± 0.00021 s⁻¹ | – | 3.24e-05 ± 1.1e-05 s⁻¹ | 9.27e-05 ± 1.6e-05 s⁻¹ | 0.000263 ± 6e-05 s⁻¹ | 0.000363 ± 6.4e-05 s⁻¹ | 0.000964 ± 0.00015 s⁻¹ |
| A14C A64G | 0.00265 ± 0.00066 s⁻¹ | 884 ± 370 µM | 0.000141 ± 3e-05 s⁻¹ | 0.000434 ± 0.0002 s⁻¹ | 0.000733 ± 0.00024 s⁻¹ | 0.00221 ± 0.00047 s⁻¹ | 0.00267 ± 0.00068 s⁻¹ |
| A14C U47G | 0.00101 ± 0.00014 s⁻¹ | 2500 ± 550 µM | 2.31e-05 ± 1.1e-05 s⁻¹ | 6.35e-05 ± 1.2e-05 s⁻¹ | 0.000208 ± 3e-05 s⁻¹ | 0.000422 ± 8.2e-05 s⁻¹ | 0.000874 ± 0.00012 s⁻¹ |
| A14C G32U | 0.0014 ± 6.9e-05 s⁻¹ | 3610 ± 300 µM | – | 6.08e-05 ± 2.1e-05 s⁻¹ | 0.000206 ± 3e-05 s⁻¹ | 0.000576 ± 7.9e-05 s⁻¹ | 0.00103 ± 0.00012 s⁻¹ |
